Laboratory results from paper PMC7554088.

Biological target: T1, Rev7, accessory subunit of S. cerevisiae DNA polymerase ζ (S. cerevisiae), P38927
T1 chain: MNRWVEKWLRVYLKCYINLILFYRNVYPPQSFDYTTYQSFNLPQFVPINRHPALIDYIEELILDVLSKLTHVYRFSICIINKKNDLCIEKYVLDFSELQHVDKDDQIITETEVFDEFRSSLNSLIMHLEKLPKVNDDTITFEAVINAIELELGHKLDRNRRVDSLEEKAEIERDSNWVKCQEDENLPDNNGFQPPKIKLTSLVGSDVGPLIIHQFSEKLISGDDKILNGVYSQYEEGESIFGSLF
Test: cryo-EM structure
Details: remark: other sources report otherwise

stoichiometry N: 2
B1: Rev7, accessory subunit of S. cerevisiae DNA polymerase ζ, P38927 1-245 (natural protein)
chain: MNRWVEKWLRVYLKCYINLILFYRNVYPPQSFDYTTYQSFNLPQFVPINRHPALIDYIEELILDVLSKLTHVYRFSICIINKKNDLCIEKYVLDFSELQHVDKDDQIITETEVFDEFRSSLNSLIMHLEKLPKVNDDTITFEAVINAIELELGHKLDRNRRVDSLEEKAEIERDSNWVKCQEDENLPDNNGFQPPKIKLTSLVGSDVGPLIIHQFSEKLISGDDKILNGVYSQYEEGESIFGSLF
